Measurements as given in article PMC2921341, “Interaction of Serum- and Glucocorticoid Regulated Kinase 1 (SGK1) with the WW-Domains of Nedd4-2 Is Required for Epithelial Sodium Channel Regulation” (PLoS ONE, 2010).
pKd: −log10 of the molar value.

Tests used:
[1] = biological target: βENaC PY motif peptide (Homo sapiens) (UniProt P51168); details: cited from earlier work
[2] = biological target: SGK PY-motif peptide (human); assay: SPR; BIAcore 2000; peptide immobilised on Sensor Chip CM5 by amine chemistry; isolated WW-domains injected at 20 µl/min in HBS-EP; KD estimated from steady state equilibrium responses
[3] = biological target: βhENaC PY-motif peptide (human); assay: as above

Sequence of Nedd4 WW2-4 (P46934 767-925): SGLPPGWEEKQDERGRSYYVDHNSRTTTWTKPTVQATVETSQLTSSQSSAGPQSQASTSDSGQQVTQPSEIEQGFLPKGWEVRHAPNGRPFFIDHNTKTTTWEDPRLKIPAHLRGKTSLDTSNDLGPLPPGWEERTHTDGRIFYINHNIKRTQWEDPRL

Substance: Nedd4 WW2-4 (from UniProt P46934)
- pKd [1]: 4.19

Substance: Nedd4-2 WW3 (isolated WW-domain, GST removed) (domain or fragment)
- pKd [2]: 3.60
- pKd [3]: 4.95
